Measured values published in the supplement of paper PMC9170038.

Test system: MS2 coat protein
Assay: apparent KD of MS2 coat protein; designed switch direction (-1 OFF switch, 1 ON switch): -1; higher = weaker reporter binding
Method in brief: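 RNA switches sharing common flanks were transcribed by stalled E. coli RNA polymerase on Illumina chips. A doubling series of SNAP-549-labelled MS2 coat protein, from 0.7 or 1.5 nM to 3 µM, was applied in Tris-HCl pH 7.5 buffer with KCl, MgCl2, BSA, DTT, tRNA and Tween-20. Each step lasted 0.8–1.5 h at the bottom of the series and 10–20 min at the top. Normalised cluster fluorescence was curve-fitted, giving apparent KD as the per-design median over clusters.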

[1] = Eterna round: R95, input ligand: microRNA oligo, concentration not stated
[2] = Eterna round: R95, input ligand: FMN 200 uM
[3] = Eterna round: R95, input ligand: none

AAGUAGUGUGUGAGGAUAUUGGUGGAAUGACACAUUAAGAAGGUACAUGAGGAUCACCCAUGUGGGUAAACACG [Brourd's EX4 #23] (Eterna round: R97, puzzle: Brourd's mod of Exclusion 4)
apparent KD of MS2 coat protein (input ligand: FMN 200 uM): 137 nM | apparent KD of MS2 coat protein (input ligand: none): 146 nM

AAGUAUAGAGGAUAUAGUGAGUACUACAUGAGGAUCACCCAUGUUCUUCAAAGCGUAUUUCUAGAAGGCUAAUGAA [EX-5 Malc#14] (puzzle: Exclusion 5)
apparent KD of MS2 coat protein [1]: 43.3 nM

AAGUAUAGAGGAUAUAGUGAGUACUACAUGAGGAUCACCCAUGUUCUUCGAAACGUAUUUCUAGAAGGCUGAUAAA [EX-5 Malc#22] (puzzle: Exclusion 5)
apparent KD of MS2 coat protein [2]: 35.3 nM | apparent KD of MS2 coat protein [1]: 28.2 nM | apparent KD of MS2 coat protein [3]: 29.2 nM

AAGUCCGAGCGAGGAUAUUCACCUCAGUCAGCUGAAGAAGGCGCUAAGCGGUGAUUAUUUUGUACAUGAGGAUCACCCAUGUCA [Eternabot solution 49] (Eterna round: R96, puzzle: Exclusion NG 1)
apparent KD of MS2 coat protein (input ligand: FMN 200 uM): 20.7 nM | apparent KD of MS2 coat protein (input ligand: microRNA oligo, concentration not stated): 21.2 nM | apparent KD of MS2 coat protein (input ligand: none): 22.6 nM

AAGUCGAGCGUGAGGAUAUUGACCGGACGACCCAUCGAGAAGGCACAUGAGGAUCACCCAUGUGAUUCAGCUCA [Brourd's EX4 #52] (Eterna round: R97, puzzle: Brourd's mod of Exclusion 4)
apparent KD of MS2 coat protein (input ligand: FMN 200 uM): 23.2 nM | apparent KD of MS2 coat protein (input ligand: none): 15.5 nM

AAGUGUCCUAAGGAUAUCGAAGCUAUCGGCUGCCGAGAAGGUAGGACAUGAGGAUCACCCAUGUACCGUGAGCC [Reedor] (puzzle: Exclusion 6)
apparent KD of MS2 coat protein [1]: 64.6 nM

AAGUUACAUGAGGAUCACCCAUGUGAGGAUAUGAGUCAGUCACGGUGACGUGGCUGACUCAGAAGGCACAUAGG [JL-ex1-4.42 salish99 mod] (Eterna round: R97, puzzle: Exclusion 1)
apparent KD of MS2 coat protein (input ligand: FMN 200 uM): 256 nM | apparent KD of MS2 coat protein (input ligand: none): 77.1 nM

AAUAAACAAGCGAGAUCCUACAUGAGGAUCACCCAUGUGCUCGUCUUAUAAAGUACUAUCACGAAAGUGAUAGUACA [Mat - Sensor v3 - turn-off var 1 - Eli Mod - D65] (puzzle: Sensor v3, turn-off variant 1)
apparent KD of MS2 coat protein [2]: 16.1 nM | apparent KD of MS2 coat protein [1]: 41.5 nM | apparent KD of MS2 coat protein [3]: 15.3 nM

AAUAAACAUGAGGAUCACCCAUGUCAGGAUAUACGAAGAAAGAAAGAAAGAAAGAAGAGUAGAAGGGAUAGGAA [Excls1-III] (puzzle: Exclusion 1)
apparent KD of MS2 coat protein [2]: 31.6 nM | apparent KD of MS2 coat protein [1]: 29.3 nM | apparent KD of MS2 coat protein [3]: 32.6 nM

AAUAAACAUGAGGAUCACCCAUGUGAGGAUAUCCAAAUAAAUAAUAAAAUAAAUAAAAGGAGAAGGCACAAUAA [JMF most obvious solution 2] (puzzle: Exclusion 1)
apparent KD of MS2 coat protein [2]: 71.7 nM | apparent KD of MS2 coat protein [1]: 198 nM | apparent KD of MS2 coat protein [3]: 190 nM

AAUAACAGAGGAUAUACUAUUUUAUGUGUUUGUUGUUUUGAACAUGAGGAUCACCCAUGUAGAAGGCUGAGUAA [JMF 40] (puzzle: Exclusion 2)
apparent KD of MS2 coat protein [1]: 24.2 nM

AAUAACAGAGGAUAUACUGUUUUAUGUAUUUAUUAUUUUAAACAUGAGGAUCACCCAUGUAGAAGGCUGAGUAA [JMF 28] (puzzle: Exclusion 2)
apparent KD of MS2 coat protein [1]: 22.6 nM

AAUAACAGAGGAUAUACUGUUUUAUGUAUUUAUUAUUUUGAACAUGAGGAUCACCCAUGUAGAAGGCUGAUUGA [JMF 75] (puzzle: Exclusion 2)
apparent KD of MS2 coat protein [1]: 31.7 nM

AAUAAGGGAGGAUAUACAUUAAAUCCUAUUUUCUUUUUGUUACAUGAGGAUCACCCAUGUAGAAGGCCCAAUAA [lam1] (Eterna round: R97, puzzle: Exclusion 2)
apparent KD of MS2 coat protein (input ligand: FMN 200 uM): 54.5 nM | apparent KD of MS2 coat protein (input ligand: none): 23 nM

AAUAAGUGAGGAUAUGCAAUAAUAAAUAAAAUAAUAAAUAAGCAGAAGGCACAUGAGGAUCACCCAUGUAAUAA [JMF's solution 1] (puzzle: Exclusion 4)
apparent KD of MS2 coat protein [2]: 29.2 nM | apparent KD of MS2 coat protein [1]: 20.8 nM | apparent KD of MS2 coat protein [3]: 21.6 nM

AAUAAUAGGGAGGAUAUCGUAUCGGAAACGAUACGAGAAGGUCUAACAUGAGGAUCACCCAUGUUCCUCAAUAA [Fiskers Ex 6 - 5] (puzzle: Exclusion 6)
apparent KD of MS2 coat protein [2]: 68.3 nM | apparent KD of MS2 coat protein [1]: 40.6 nM | apparent KD of MS2 coat protein [3]: 45.7 nM

AAUAAUGAUAAGGAUAUCACUAGCUGCGGCUAGUGAGAAGGUAUCACAUGAGGAUCACCCAUGUGUUCCAAUAA [Ex6/6-A3] (Eterna round: R97, puzzle: Exclusion 6)
apparent KD of MS2 coat protein (input ligand: FMN 200 uM): 33.1 nM | apparent KD of MS2 coat protein (input ligand: none): 14.1 nM

AAUAAUGUAGGAUAUACAUGAGGAUCACCCAUGUCCCACCCGUUACCUAUGACCAUAUGUAGAAGGACAAAUAA [Exy#4] (Eterna round: R97, puzzle: Exclusion 3)
apparent KD of MS2 coat protein (input ligand: FMN 200 uM): 56.7 nM | apparent KD of MS2 coat protein (input ligand: none): 67.3 nM

AAUAAUUUUUUUUUUUUACAAGCUUUUUGCUCGUCUUAUACAUGAGGAUCACCCAUGUGGGUGAAAGAUAGAUUGUC [JMF's solution 1] (puzzle: Sensor v3, turn-off variant 2)
apparent KD of MS2 coat protein [2]: 30.6 nM | apparent KD of MS2 coat protein [1]: 18.2 nM | apparent KD of MS2 coat protein [3]: 44.8 nM

AAUACAAGCUAUUGAUCCCACAUGAGGAUCACCCAUGUAGCUGGCGGUGACACCUCCAUUACGAUAGCUCGUCUUAU [Sensor-V1 #56] (Eterna round: R97, puzzle: Sensor, turn-off variant 1)
apparent KD of MS2 coat protein (input ligand: FMN 200 uM): 796 nM | apparent KD of MS2 coat protein (input ligand: none): 1670 nM

AAUACAAGCUAUUGAUCCCACAUGAGGAUCACCCAUGUAGGUGGCCGUGAGACCACCUUUACGAUAGCUCGUCUUAU [Sensor-V1 #51] (Eterna round: R97, puzzle: Sensor, turn-off variant 1)
apparent KD of MS2 coat protein (input ligand: FMN 200 uM): 277 nM | apparent KD of MS2 coat protein (input ligand: none): 274 nM

AAUACACAUGAGGAUCACCCAUGUCAGGAUAUGCGGAAUAAGACUUUGGUCGAUAAAUGUAGAAGGGACGUUUA [Dr. RN-Ant/Googlypuddle] (puzzle: Exclusion 1)
apparent KD of MS2 coat protein [1]: 27.7 nM

AAUACUAACACGAAAGUGUUAGUACAAUAAGCUUGUGGUACAUGAGGAUCACCCAUGUCCUCAUAAGCUCGUCUUAU [Mat - Sensor v3 - Turn-off var 2 - D41] (puzzle: Sensor v3, turn-off variant 2)
apparent KD of MS2 coat protein [2]: 24.3 nM | apparent KD of MS2 coat protein [1]: 74.5 nM | apparent KD of MS2 coat protein [3]: 21.9 nM

AAUAGGACAGGAUAUCCGGAGUCGAACAUGAGGAUCACCCAUGUGAUGAGGAUGUUCGCUGGAGAAGGGUCGGGCU [Teonus] (puzzle: Exclusion 5)
apparent KD of MS2 coat protein [2]: 83.9 nM | apparent KD of MS2 coat protein [1]: 56.5 nM | apparent KD of MS2 coat protein [3]: 53.7 nM
